Measurements: PMC10687025, “Endosomal Arl4A attenuates EGFR degradation by binding to the ESCRT-II component VPS36” (Nature Communications, 2023)

B1: untagged WT (pSG5) [not stated] / VPS36 precipitated with HA beads (Fig. 4c) [not stated] (parent)
chain 1: MGNGLSDQTSILSNLPSFQSFHIVILGLDCAGKTTVLYRLQFNEFVNTVPTKGFNTEKIKVTLGNSKTVTFHFWDVGGQEKLRPLWKSYTRCTDGIVFVVDSVDVERMEEAKTELHKITRISENQGVPVLIVANKQDLRNSLSLSEIEKLLAMGELSSSTPWHLQPTCAIIGDGLKEGLEKLHDMIIKRRKMLRQQKKKR
chain 2: MDRFVWTSGLLEINETLVIQQRGVRIYDGEEKIKFDAGTLLLSTHRLIWRDQKNHECCMAILLSQIVFIEEQAAGIGKSAKIVVHLHPAPPNKEPGPFQSSKNSYIKLSFKEHGQIEFYRRLSEEMTQRRWENMPVSQSLQTNRGPQPGRIRAVGIVGIERKLEEKRKETDKNISEAFEDLSKLMIKAKEMVELSKSIANKIKDKQGDITEDETIRFKSYLLSMGIANPVTRETYGSGTQYHMQLAKQLAGILQVPLEERGGIMSLTEVYCLVNRARGMELLSPEDLVNACKMLEALKLPLRLRVFDSGVMVIELQSHKEEEMVASALETVSEKGSLTSEEFAKLVGMSVLLAKERLLLAEKMGHLCRDDSVEGLRFYPNLFMTQS

Variants of: B1
Assay: co-immunoprecipitation (HA beads) with densitometric quantification
Conditions: with VPS36 precipitated with HA beads (Fig. 4c); HeLa cell lysates; parent: 1; read off a plot

ratio to parent	Variant
1.4	chain 1 Q79L
2.6	chain 1 T51N
